The results in this text go back to the DeepSol protein solubility set.

The data set in a line: soluble on expression in E. coli; label from the status in PepcDB or PDB records.
In the case of “MQTLTVVGLGRLGRSLGRLAADSGAYRLLDLMGRRAQPLAEGRDFVGAGRPVSEMRQLAPADLYLLAVPDAAIASCARGLAAAGVAPAGSVVFHASGVGDASLLRPLAEQGVLTASLHPAFSFADPKRAVEGFAGTLCALEGDEQACLRLEAFARALGGRPFRLAPGGKAAYHAGLSVASNFLVALTAMAGQLTARAGVPPELARQLLGGLMRQTLDNALELGPYDALTGPILRGDIGTVERHLEVLADTGLISAYRTLGRQVVELAGERLQEPARQQLLALLYLEHHHHHH”, the “soluble on expression in E. coli” value is recorded as “soluble”.
The same measure for “MQVIRKPTRMLSGVTIVSIMTHPHSCPHGKCVFCPGGVDVDTPQSYYGREPTLMRAIENDYDPFHQVQSRLRQYVENGHTPSKVELIIMGGTFLSLPIDYQDWFVTYALEAMNRFPSYDKPSFVYLEDAQVKNEKAEVRCVGMTIETKPDWAKEWHADQMLRLGATKVELGVQTVYDDILKFTNRGHTVKDSIESTRILKDSGFKVVYHVMLGLPKSDPDKDLEAFKTIFSDPNFRPDMLKIYPTLVVETAPLANLWRRGLYKPYGTETLIELISEMYRYIPKWVRVMRIQRDIPANVILDGNKKGNLRELVEKKVLEKGIKINEIRFREVGMMWQHRGLLPDHTKIHLYKEVYEASEGTEIFLSFEDEKEILIGYLRLRITSNKAHRKEIDGKTAIVRELHVYGIEVPIGSWDELGFQHRGYGSKLLSEAEKIAREEFDMRKISVLSGIGAREYYAKRGYVKEGPYMSKQLI”: “not soluble”; for “MQVTYKGRPIRITPDFSPETMKARRAWTDVIQTLREHKCQPRLLYPAKLSITIDGETKVFHDKTKFTQYLSTNPALQRIITEKKQYKD”: “soluble”; for “MRAASTSKPVGAHEETGHLGGAHSTYVSSAQVTNAEHENELQVVDLPRAPPSLSKAVTYFYITGFGRFALMEDNPTERVVLRLREILQDPGRVQMLHERLVRIVDLRILEVSAAAAHETLAEMKTQCLQMRQKPNISSDGRNRTVCFLHLGVDASADGFLVERSAVNEALFRFPDERGWQPTTPIPIVRGAQLGARYELDGEALASLCERTESLLNEWGRTNWTVRVNDDAGRFLCNYLFYLSAFEGLAENGHHLWQTFFLHCPMETVAPLDVQVDVVLAFMVAVAQSNAQQGPLEGILAR”: “soluble”.
With “MRAELNQGLIDFLKASPTPFHATASLARRLEAAGYRRLDERDAWHTETGGRYYVTRNDSSLIAIRLGRRSPLESGFRLVGAHTDSPCLRVKPNPEIARNGFLQLGVEVYGGALFAPWFDRDLSLAGRVTFRANGKLESRLVDFRKAIAVIPNLAIHLNRAANEGWPINAQNELPPIIAQLAPGEAADFRLLLDEQLLREHGITADVVLDYELSFYDTQSAAVVGLNDEFIAGARLDNLLSCHAGLEALLNAEGDENCILVCTDHEEVGSCSHCGADGPFLEQVLRRLLPEGDAFSRAIQRSLLVSADNAHGVHPNYADRHDANHGPALNGGPVIKINSNQRYATNSETAGFFRHLCQDSEVPVQSFVTRSDMGCGSTIGPITASQVGVRTVDIGLPTFAMHSIRELAGSHDLAHLVKVLGAFYASSELP” the entry was “not soluble”.
As for “MRALALDVGLKRIGVALCIDKKIALPLDAVLRKNRNQAANEIKNLLKIHEISLLIVGIPKGGSSEEEMTRRIKHFVSLLEFDKEICFVDESGTSKEALGYGVANTRKKDGKLDSLSAFIMIKDYFALLEHHHHHH”, the “soluble on expression in E. coli” value is “not soluble”.
Turning to “MRALREKTSMSQGVEFNRLMLDMRAMQMDAMSAPKPVSGAQEAGASSFADMLGQAVNKVAQTQQASSQLANAFEVGKSGIDLTDVMISSQKASVSFQALTQVRNKLVQAYQDIMQMPV”, the “soluble on expression in E. coli” value is given as “not soluble”.
With “MRALRLLTRQEYQNTVNDLLGLSENLVHLLPEENRVDGFDNNVATNLVTSIRLEAFLTQAEALAAKAVQQNWNALLPCTQQDLEHHHHHH” the entry was “not soluble”; with “MRAVIPYKKAGAKSRLSPVLSLQEREEFVELMLNQVISSLKGAGIEQVDILSPSVYGLEEMTEARVLLDEKDLNEALNRYLKEAEEPVLIVMADLPLLSPEHIKEISSTEKDVCIVPGKGGGTNALFIKNPSKYRVKYYGSSFLTHCSIATDSGQDFEIYDSFMAGTDIDEPEDLVELLIHGKGAAKDYIESKFRLEVKKGRVGLVPL”, “soluble”.
Consider “MRAVRLVEIGKPLSLQEIGVPKPKGPQVLIKVEAAGVCHSDVHMRQGRFGNLRIVEDLGVKLPVTLGHEIAGKIEEVGDEVVGYSKGDLVAVNPLQGEGNCYYCRIGEEHLCDSPRWLGINFDGAYAEYVIVPHYKYMYKLRRLNAVEAAPLTCSGITTYRAVRKASLDPTKTLLVVGAGGGLGTMAVQIAKAVSGATIIGVDVREEAVEAAKRAGADYVINASMQDPLAEIRRITESKGVDAVIDLNYSEKTLSVYPKALAKQGKYVMVGLFGADLHYHAPLITLSEIQFVGSLVGNQSDFLGIMRLAEAGKVKPMITKTMKLEEANEAIDNLENFKAIGRQVLIP”, for which the “soluble on expression in E. coli” value was “soluble”.
As to “MRDLYPLTRRRLLTAMALSPLLWQMNTAQAAAIDPRRIVALEWLPVELLLALGITPYGVADVPNYKLWVSEPPLPDSVIDVGLRTEPNLELLTEMKPSFMVWSAGYGPSPEKLARIAPGRGFDFSDGKKPLAVARRSLVELAQTLNLEAAAEKHLAQYDRFIASQKPHFIRRGGRPLLMTTLIDPRHMLVLGPNCLFQEVLDEYGIVNAWQGETNFWGSTAVSIDRLAMYKEADVICFDHGNNTDMNALMATPLWQAMPFVRAGRFHRVPAVWFYGATLSTMHFVRILNNVLGGKA”, the “soluble on expression in E. coli” value is “not soluble”.
With “MRDRLLAAEKVKAIDWRDDALYLLDQRVLPFEEVWHRYTTAAGVAEAIRTMVVRGAPAIGISAAYGAVLGARARIAEGGDWYPALEEDMQLLADSRPTAVNLFWALNRIRDRLMRVKNGDNPLAALEAEAVAIHLSDREANLTMAQLGADLIRKHQGNLQTVLTHCNTGALATGGFGTALGVIRAAHLEGMIERVYADETRPWLQGSRLTAWELANEGIPVTLNADSAAAHLMRTKGITWVIVGADRITANGDVANKIGTYQLAVAAMHHGVRFMVVAPSSTIDMEMASGDDIIIEERDGRELLEVGGQRVGADVEAFNPVFDVTPADLIDAIVTEKGIVERPDTARMAQLMSRKHLHLEHHHHHH” the entry was “soluble”; with “MREPGFWHRPPSLVSRLLLPIAAIYGNIAAARMQKAGTTVGVPVLCVGNYHMGGAGKTPTTLALVALLREFGETPVVLSRGYGGRLQGPVQVDPSRHSAADIGDEPLMMARRVPVVVARDRTDGAALACALGATVILMDDGFQNPALTKDASLIVVDSHRSIGNGSVFPAGPLRAPLPLQVARTDALVVVGDGTAADGLAQQITTKGGVVLRARLVPEPASVEALRGRRVLAFAGIGDPARFVATLRDSGVEVVEQRAFADHHPFTAEELAELAAAAKRDGLTLVTTEKDLARIGGAQQALGVEIVPFAVTLAFGDEAKLRLFLLDRLNGARAAKLAGRRMAGDPLEHHHHHH”, “not soluble”.
Regarding “MREVEPLAERLRPRSLDEVLGQPHLTGPQGLLRRMLEAGRLSSMVLFGPPGTGKTTLARLLAEGVGRPFLRLSAVEAGLKEVRQAVEEARAKGGLVLFLDEVHRFNKAQQDALLPHLESGLLTLIGATAENPAFALVPALRSRLRFFPLRPLEEADLLALLRRALEDPRGLPGTPYEEEALRVLAQAAGGDARFALNTLELAASFGRVDLKSVREALGAERFGMDREGDRFYDLVSALHKSLRGSHVDAALYYLARLLQGGADPRYLARRLIRVAVEDVGLADPLALRLAVAAKEAYEALGSPEGELALVEAAVYLALAPKSNSLYAAWKKAQEAAKAHPEAEVPLNLRNAPTGLARALGHGEGYAYYHEDKEGSFAQRYLPEGLEGLTLFEATGEGWEERVRERLKALRERFQTARRRRG”, the “soluble on expression in E. coli” value is “soluble”.
With “MRFERFVGIDPSLRTGFVALSPFGEVIEAKEIEKEGDDPARMSKLIQVVVDSVHDTDFVAIEGFGYASQRGFLLGGIGWGMRMELYRRGIPYIDVAPSLLKKFAGAKGNANKEKVVLEVYKRWGFESDSNNVIDAFVLAQIARAAKTETKLIQAQKEVLNKLFK” the entry was “not soluble”.
